From the supplement of paper PMC9112550, “Optimization of the antimicrobial peptide Bac7 by deep mutational scanning” (BMC Biology, 2022)

System: Escherichia coli TOP10
Assay: shrunken log2 fold change of peptide-encoding DNA abundance (4.5 h post-induction vs induction); higher = less antimicrobial activity (less host growth inhibition)
Conditions: time post-induction: 4.5 h; library: site-saturation at positions 5, 18, 19, 20
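Also: peptides expressed intracellularly from a pBAD plasmid library in pooled LB shake-flask culture, induced with 0.3% L-arabinose, DNA abundance read by NGS, three biological replicates, DESeq2 with apeglm shrinkage.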

RRIRWRPPRLPRPRPRPPHHPRP
shrunken log2 fold change: 0.214

RRIRWRPPRLPRPRPRPPHVPRP
shrunken log2 fold change: 0.444

RRIRWRPPRLPRPRPRPPHWPRP
shrunken log2 fold change: 0.592

RRIRWRPPRLPRPRPRPPIKPRP
shrunken log2 fold change: -0.0713

RRIRWRPPRLPRPRPRPPINPRP
shrunken log2 fold change: -0.0948

RRIRWRPPRLPRPRPRPPLMPRP
shrunken log2 fold change: 0.213

RRIRWRPPRLPRPRPRPPMGPRP
shrunken log2 fold change: 0.362

RRIRWRPPRLPRPRPRPPMMPRP
shrunken log2 fold change: 0.203

RRIRWRPPRLPRPRPRPPMRPRP
shrunken log2 fold change: 1.18

RRIRWRPPRLPRPRPRPPNAPRP
shrunken log2 fold change: 0.675

RRIRWRPPRLPRPRPRPPNRPRP
shrunken log2 fold change: 0.148

RRIRWRPPRLPRPRPRPPPGPRP
shrunken log2 fold change: 1.08

RRIRWRPPRLPRPRPRPPQNPRP
shrunken log2 fold change: 0.91

RRIRWRPPRLPRPRPRPPSQPRP
shrunken log2 fold change: 0.452

RRIRWRPPRLPRPRPRPPTMPRP
shrunken log2 fold change: 0.264

RRIRWRPPRLPRPRPRPPVRPRP
shrunken log2 fold change: 0.108

RRIRWRPPRLPRPRPRPPVYPRP
shrunken log2 fold change: -0.0994

RRIRWRPPRLPRPRPRPPWMPRP
shrunken log2 fold change: 0.371

RRIRWRPPRLPRPRPRPPYDPRP
shrunken log2 fold change: -0.0917

RRIRWRPPRLPRPRPRPPYRPRP
shrunken log2 fold change: 3.11

RRIRWRPPRLPRPRPRPPYVPRP
shrunken log2 fold change: -0.284

RRIRWRPPRLPRPRPRPQAHPRP
shrunken log2 fold change: 0.00175

RRIRWRPPRLPRPRPRPQCFPRP
shrunken log2 fold change: 0.146

RRIRWRPPRLPRPRPRPQDCPRP
shrunken log2 fold change: -0.014

RRIRWRPPRLPRPRPRPQEPPRP
shrunken log2 fold change: 0.316

RRIRWRPPRLPRPRPRPQFMPRP
shrunken log2 fold change: -0.155

RRIRWRPPRLPRPRPRPQFWPRP
shrunken log2 fold change: 0.105

RRIRWRPPRLPRPRPRPQGRPRP
shrunken log2 fold change: 0.64

RRIRWRPPRLPRPRPRPQIVPRP
shrunken log2 fold change: 0.0235

RRIRWRPPRLPRPRPRPQKGPRP
shrunken log2 fold change: -0.214

RRIRWRPPRLPRPRPRPQLQPRP
shrunken log2 fold change: 0.229

RRIRWRPPRLPRPRPRPQMFPRP
shrunken log2 fold change: 0.197

RRIRWRPPRLPRPRPRPQMGPRP
shrunken log2 fold change: -0.124

RRIRWRPPRLPRPRPRPQMRPRP
shrunken log2 fold change: 0.147

RRIRWRPPRLPRPRPRPQMYPRP
shrunken log2 fold change: -0.168

RRIRWRPPRLPRPRPRPQNDPRP
shrunken log2 fold change: -0.0722

RRIRWRPPRLPRPRPRPQNEPRP
shrunken log2 fold change: -0.18

RRIRWRPPRLPRPRPRPQNFPRP
shrunken log2 fold change: 0.0414

RRIRWRPPRLPRPRPRPQQWPRP
shrunken log2 fold change: 0.333

RRIRWRPPRLPRPRPRPQRCPRP
shrunken log2 fold change: 0.103

RRIRWRPPRLPRPRPRPQREPRP
shrunken log2 fold change: 0.0297

RRIRWRPPRLPRPRPRPQSWPRP
shrunken log2 fold change: 0.302

RRIRWRPPRLPRPRPRPQTGPRP
shrunken log2 fold change: -0.000887

RRIRWRPPRLPRPRPRPQVCPRP
shrunken log2 fold change: 0.189

RRIRWRPPRLPRPRPRPQYCPRP
shrunken log2 fold change: -0.198

RRIRWRPPRLPRPRPRPQYGPRP
shrunken log2 fold change: -0.442

RRIRWRPPRLPRPRPRPQYHPRP
shrunken log2 fold change: -0.505

RRIRWRPPRLPRPRPRPQYYPRP
shrunken log2 fold change: -0.0952

RRIRWRPPRLPRPRPRPRACPRP
shrunken log2 fold change: 0.468

RRIRWRPPRLPRPRPRPRAGPRP
shrunken log2 fold change: 0.673

RRIRWRPPRLPRPRPRPRCDPRP
shrunken log2 fold change: 0.429

RRIRWRPPRLPRPRPRPRCHPRP
shrunken log2 fold change: 0.33

RRIRWRPPRLPRPRPRPRCMPRP
shrunken log2 fold change: 0.204

RRIRWRPPRLPRPRPRPRESPRP
shrunken log2 fold change: 0.846

RRIRWRPPRLPRPRPRPRFFPRP
shrunken log2 fold change: 0.326

RRIRWRPPRLPRPRPRPRFMPRP
shrunken log2 fold change: -0.17

RRIRWRPPRLPRPRPRPRGVPRP
shrunken log2 fold change: 0.756

RRIRWRPPRLPRPRPRPRGYPRP
shrunken log2 fold change: 0.209

RRIRWRPPRLPRPRPRPRMAPRP
shrunken log2 fold change: 0.614

RRIRWRPPRLPRPRPRPRNSPRP
shrunken log2 fold change: 0.0821

RRIRWRPPRLPRPRPRPRQDPRP
shrunken log2 fold change: 0.796

RRIRWRPPRLPRPRPRPRQFPRP
shrunken log2 fold change: 0.0819

RRIRWRPPRLPRPRPRPRQKPRP
shrunken log2 fold change: 0.0761

RRIRWRPPRLPRPRPRPRQRPRP
shrunken log2 fold change: 0.957

RRIRWRPPRLPRPRPRPRREPRP
shrunken log2 fold change: 0.427

RRIRWRPPRLPRPRPRPRRRPRP
shrunken log2 fold change: 1.3

RRIRWRPPRLPRPRPRPRSFPRP
shrunken log2 fold change: -0.00655

RRIRWRPPRLPRPRPRPRSWPRP
shrunken log2 fold change: 1.07

RRIRWRPPRLPRPRPRPRTLPRP
shrunken log2 fold change: 0.565

RRIRWRPPRLPRPRPRPRTRPRP
shrunken log2 fold change: 0.755

RRIRWRPPRLPRPRPRPRVFPRP
shrunken log2 fold change: 0.186

RRIRWRPPRLPRPRPRPRWPPRP
shrunken log2 fold change: 0.598

RRIRWRPPRLPRPRPRPRYDPRP
shrunken log2 fold change: -0.248

RRIRWRPPRLPRPRPRPRYFPRP
shrunken log2 fold change: -0.127

RRIRWRPPRLPRPRPRPSEIPRP
shrunken log2 fold change: -0.178

RRIRWRPPRLPRPRPRPSESPRP
shrunken log2 fold change: 0.0933

RRIRWRPPRLPRPRPRPSFEPRP
shrunken log2 fold change: -0.0836

RRIRWRPPRLPRPRPRPSFRPRP
shrunken log2 fold change: -0.261

RRIRWRPPRLPRPRPRPSGHPRP
shrunken log2 fold change: -0.195

RRIRWRPPRLPRPRPRPSGVPRP
shrunken log2 fold change: -0.158

RRIRWRPPRLPRPRPRPSIKPRP
shrunken log2 fold change: -0.419

RRIRWRPPRLPRPRPRPSKYPRP
shrunken log2 fold change: -0.632

RRIRWRPPRLPRPRPRPSLIPRP
shrunken log2 fold change: -0.574

RRIRWRPPRLPRPRPRPSLLPRP
shrunken log2 fold change: 0.0919

RRIRWRPPRLPRPRPRPSMVPRP
shrunken log2 fold change: -0.129

RRIRWRPPRLPRPRPRPSNYPRP
shrunken log2 fold change: -0.707

RRIRWRPPRLPRPRPRPSPGPRP
shrunken log2 fold change: -0.0366

RRIRWRPPRLPRPRPRPSPMPRP
shrunken log2 fold change: -0.108

RRIRWRPPRLPRPRPRPSQFPRP
shrunken log2 fold change: -0.196

RRIRWRPPRLPRPRPRPSQHPRP
shrunken log2 fold change: 0.0667

RRIRWRPPRLPRPRPRPSRQPRP
shrunken log2 fold change: 0.399

RRIRWRPPRLPRPRPRPSSYPRP
shrunken log2 fold change: -0.123

RRIRWRPPRLPRPRPRPSTFPRP
shrunken log2 fold change: -0.616

RRIRWRPPRLPRPRPRPSVNPRP
shrunken log2 fold change: -0.0581

RRIRWRPPRLPRPRPRPSWSPRP
shrunken log2 fold change: 0.862

RRIRWRPPRLPRPRPRPSWVPRP
shrunken log2 fold change: 0.0566

RRIRWRPPRLPRPRPRPTAVPRP
shrunken log2 fold change: 0.415

RRIRWRPPRLPRPRPRPTCMPRP
shrunken log2 fold change: 0.553

RRIRWRPPRLPRPRPRPTERPRP
shrunken log2 fold change: -0.124

RRIRWRPPRLPRPRPRPTESPRP
shrunken log2 fold change: 0.189

RRIRWRPPRLPRPRPRPTIGPRP
shrunken log2 fold change: 0.217

RRIRWRPPRLPRPRPRPTILPRP
shrunken log2 fold change: 0.0395

RRIRWRPPRLPRPRPRPTLFPRP
shrunken log2 fold change: 0.0961

RRIRWRPPRLPRPRPRPTLQPRP
shrunken log2 fold change: 0.253

RRIRWRPPRLPRPRPRPTMCPRP
shrunken log2 fold change: -0.00672

RRIRWRPPRLPRPRPRPTNQPRP
shrunken log2 fold change: 0.018

RRIRWRPPRLPRPRPRPTQLPRP
shrunken log2 fold change: 0.0699

RRIRWRPPRLPRPRPRPTQVPRP
shrunken log2 fold change: 0.477

RRIRWRPPRLPRPRPRPTRWPRP
shrunken log2 fold change: 0.573

RRIRWRPPRLPRPRPRPTTDPRP
shrunken log2 fold change: 0.449

RRIRWRPPRLPRPRPRPTWAPRP
shrunken log2 fold change: 0.369

RRIRWRPPRLPRPRPRPTWYPRP
shrunken log2 fold change: 0.27

RRIRWRPPRLPRPRPRPVAGPRP
shrunken log2 fold change: 0.524

RRIRWRPPRLPRPRPRPVAQPRP
shrunken log2 fold change: 0.386

RRIRWRPPRLPRPRPRPVCVPRP
shrunken log2 fold change: 0.193

RRIRWRPPRLPRPRPRPVDIPRP
shrunken log2 fold change: 0.101

RRIRWRPPRLPRPRPRPVDMPRP
shrunken log2 fold change: -0.0613

RRIRWRPPRLPRPRPRPVEGPRP
shrunken log2 fold change: -0.0555

RRIRWRPPRLPRPRPRPVFIPRP
shrunken log2 fold change: -0.22

RRIRWRPPRLPRPRPRPVFSPRP
shrunken log2 fold change: -0.0517

RRIRWRPPRLPRPRPRPVGYPRP
shrunken log2 fold change: 0.0334

RRIRWRPPRLPRPRPRPVHQPRP
shrunken log2 fold change: 0.194

RRIRWRPPRLPRPRPRPVIRPRP
shrunken log2 fold change: 0.0511

RRIRWRPPRLPRPRPRPVKHPRP
shrunken log2 fold change: 0.0838

RRIRWRPPRLPRPRPRPVLDPRP
shrunken log2 fold change: 0.0956

RRIRWRPPRLPRPRPRPVLIPRP
shrunken log2 fold change: -0.0326

RRIRWRPPRLPRPRPRPVPPPRP
shrunken log2 fold change: 0.372

RRIRWRPPRLPRPRPRPVQNPRP
shrunken log2 fold change: 0.316

RRIRWRPPRLPRPRPRPVTAPRP
shrunken log2 fold change: 0.138

RRIRWRPPRLPRPRPRPVTCPRP
shrunken log2 fold change: -0.00133

RRIRWRPPRLPRPRPRPVVNPRP
shrunken log2 fold change: 0.261

RRIRWRPPRLPRPRPRPVVYPRP
shrunken log2 fold change: -0.228

RRIRWRPPRLPRPRPRPVWMPRP
shrunken log2 fold change: 0.333

RRIRWRPPRLPRPRPRPVWQPRP
shrunken log2 fold change: 0.301

RRIRWRPPRLPRPRPRPVWRPRP
shrunken log2 fold change: 0.488

RRIRWRPPRLPRPRPRPVWYPRP
shrunken log2 fold change: -0.18

RRIRWRPPRLPRPRPRPWAEPRP
shrunken log2 fold change: 0.267

RRIRWRPPRLPRPRPRPWALPRP
shrunken log2 fold change: -0.158

RRIRWRPPRLPRPRPRPWCDPRP
shrunken log2 fold change: -0.0997

RRIRWRPPRLPRPRPRPWCWPRP
shrunken log2 fold change: 0.304

RRIRWRPPRLPRPRPRPWDSPRP
shrunken log2 fold change: -0.287

RRIRWRPPRLPRPRPRPWDTPRP
shrunken log2 fold change: 0.0106

RRIRWRPPRLPRPRPRPWFPPRP
shrunken log2 fold change: -0.0213

RRIRWRPPRLPRPRPRPWFYPRP
shrunken log2 fold change: -0.705

RRIRWRPPRLPRPRPRPWGDPRP
shrunken log2 fold change: 0.0345

RRIRWRPPRLPRPRPRPWGRPRP
shrunken log2 fold change: 0.0619

RRIRWRPPRLPRPRPRPWILPRP
shrunken log2 fold change: -0.19

RRIRWRPPRLPRPRPRPWINPRP
shrunken log2 fold change: -0.506

RRIRWRPPRLPRPRPRPWNDPRP
shrunken log2 fold change: 0.0222

RRIRWRPPRLPRPRPRPWRNPRP
shrunken log2 fold change: 0.0636
